Data as given in patent publication US20080095772A1 (Chugai, published 2008).
Values belong to the binder of their own block, whether it stands above or below them.

Key:
[1] = biological target: T1, human PTHrP (1-34) (human); assay: ELISA on plate-coated human PTHrP (1-34) (1 µg/ml); bound antibody detected with alkaline phosphatase-conjugated goat anti-human IgG; O.D. 405/620
T1 construct: Synthetic peptide (Peninsula; Peptide Research Institute), coated on ELISA plates at 1 µg/ml or used in solid phase RIA; also called human parathyroid hormone related protein (1-34)
Description: An ELISA plate for the determination of antigen binding ability was prepared as follows. Each of the wells of a 96-well plate for ELISA was coated with 100 μl of a solution comprising human PTHrP (1-34) (Peptide Research Institute) prepared in a coating buffer of a concentration of 1 μg/ml and then blocked with 200 μl of a dilution buffer. […] After incubating at room temperature and washing with PBS-Tween20, each well was added with 100 μl of a solution of alkaline phosphatase-conjugated goat anti-human IgG antibodies (TAGO). After incubating at room temperature and washing with PBS-Tween20, each well was added with 1 mg/ml of a substrate solution (“Sigma104”, p-nitrophenylphosphoric acid, SIGMA). The solution was measured for absorbance at −405 nm using Microplate Reader (Bio Rad).

[2] = biological target: T1, human PTHrP (1-34); assay: solid phase RIA of hybridoma supernatants
[3] = biological target: PTHrP (1-34+Cys) (human, C-terminal Cys coupled to sensor tip CM5 through PDEA (thiol coupling)); assay: BIACORE (SPR), PTHrP (1-34+C) immobilised on CM5 through the C-terminal Cys, antibody as analyte
Description: In this experiment, kinetic analysis of the antigen-antibody interaction using BIACORE was conducted. PTHrP(1-34+Cys) was used as an antigen and adsorbed onto the sensor tip specifically for C-terminals. Purified antibodies of various concentrations were used as an analyte. From the sensorgram obtained, kinetics parameters (binding rate constant “kass” and dissociation rate constant “kdiss”) were calculated.
As a running buffer, HBS (10 mM HEPES, pH 7.4; 0.15 M NaCl; 3.4 mM EDTA; 0.005% Surfactant P20) at a flow rate of 5 μl/min. was employed. The carboxyl groups of carboxymethyldextran on the sensor tip CM5 were activated by an injection of 100 μl of 0.05M N-hydroxysuccinimide (NHS)/0.2M N-ethyl-N′-(3-dimethylaminopropyl)carbodiimide hydrochloride (EDC) and an injection of 100 μl of 80 mM 2-(2-pyridinyldithio)ethanamine (PDEA)/0.1M borate buffer (pH 8.5), and an additional injection of 10 μl of 5 μg/ml PTHrP (1-34+C)/10 mM sodium acetate buffer (pH 5.0) to adsorbe onto the C-terminals of PTHrP (1-34+C) specifically for Cys residues. Subsequently, an injection of 100 μl of 50 mM (L)-cystein/1M NaCl/0.1M sodium formate buffer (pH 4.3) was conducted to block excessively activated groups. Subsequently, an injection of 10 μl of 0.1M glycine-HCl buffer (pH 2.5) and 10 μl of 10 mM HCl was conducted to wash the substances having non-covalent bonding.
The date file of interest was read and a comparison of the reaction patterns was conducted by overlaying the reaction regions of interest (FIGS. 20-24). […] Further, kinetic analysis of the interaction was conducted using an analysis software specifically designed for BIACORE “BIAevaluation 2.1” (Pharmacia) which is capable of calculating the kinetics parameters (binding rate constant “kass” and dissociation rate constant “kdiss”) by curve cutting (Tables 4 and 5).

[4] = biological target: T1, human PTHrP (1-34); assay: ELISA on plate-coated human PTHrP (1-34) (1 µg/ml); bound antibody detected with alkaline phosphatase-conjugated goat anti-human IgG; O.D. 405/620; remark: listed apart in the source
Description: (§1) An ELISA plate for determining antigen binding ability was prepared as follows. Each of the wells of a 96-well plate for ELISA (Maxisorp, NUNC) was coated with 100 μl of a coating buffer supplemented with 1 μg/ml of human PTHrP (1-34) and then blocked with 200 μl of a dilution buffer. Thereafter, into each of the wells, was added a culture supernatant of the COS-7 cells in which the hybrid antibody or humanized antibody was expressed or a solution of the purified hybrid antibody or the purified humanized antibody in stepwise dilution. After incubating at room temperature and washing with PBS-Tween20, 100 μl of alkaline phosphatase-conjugated goat anti-human IgG antibody (TAGO) was added to each of the wells. […] The solution was measured for absorbance at 405 nm using Microplate Reader (Bio Rad).

[5] = biological target: T1, human PTHrP (1-34); assay: as above; remark: listed apart in the source
Description: as §1

B1: chimeric #23-57-137-1 antibody with human κ L chain C region (antibody, V domains shown)
VH: EVQLVESGGDLVKPGGSLKLSCAASGFTFSSYGMSWIRQTPDKRLEWVATISSGGSYTYYPDSVKGRFTISRDNAKNTLYLQMSSLKSEDTAMFYCARQTTMTYFAYWGQGTLVTVSA
VL: QLVLTQSSSASFSLGASAKLTCTLSSQHSTYTIEWYQQQPLKPPKYVMDLKQDGSHSTGDGIPDRFSGSSSGADRYLSISNIQPEDEAMYICGVGDTIKEQFVYVFGGGTKVTVLG
notes: Mouse V regions on a human Cγ1 H chain C region and a human Cκ L chain C region (from HEF-PM1k-gk); also called chimeric antibody (κ); MBC1HcDNA + MBC1L(κ)/neo
binding result [1]: binds

B2: mouse monoclonal antibody #23-57-137-1 (antibody, V domains shown)
VH: EVQLVESGGDLVKPGGSLKLSCAASGFTFSSYGMSWIRQTPDKRLEWVATISSGGSYTYYPDSVKGRFTISRDNAKNTLYLQMSSLKSEDTAMFYCARQTTMTYFAYWGQGTLVTVSA
VL: QLVLTQSSSASFSLGASAKLTCTLSSQHSTYTIEWYQQQPLKPPKYVMDLKQDGSHSTGDGIPDRFSGSSSGADRYLSISNIQPEDEAMYICGVGDTIKEQFVYVFGGGTKVTVLG
notes: Whole mouse antibody with a mouse λ L chain; The H chain cDNA was amplified with the MHC-G1 primer; also called MBC
binding result [2]: binds
Kd [3]: 102 pM
koff [3]: 7.38e-05 s⁻¹
kon [3]: 723000 M⁻¹ s⁻¹

B3: humanized #23-57-137-1 antibody, H chain version a, L chain version j (antibody, V domains shown)
VH: QVQLVESGGGVVQPGRSLRLSCAASGFTFSSYGMSWVRQAPGKGLEWVATISSGGSYTYYPDSVKGRFTISRDNSKNTLYLQMNSLRAEDTAVYYCARQTTMTYFAYWGQGTLVTVSS
VL: QLVLTQSPSASASLGASVKLTCTLSSQHSTYTIEWYQQQPEKGPKYLMDLKQDGSHSTGDGIPDRFSGSSSGAERYLTISSLQSEDEADYYCGVGDTIKEQFVYVFGGGTKLTVLG
notes: Human Cγ1 and human Cλ C regions; Expressed in COS-7
binding result [4]: binds

Further lines, results first:

binding result [5]: binds
B4: antibody comprising the humanized H chain version "a" and the chimeric L chain (antibody, V domains shown)
VH: QVQLVESGGGVVQPGRSLRLSCAASGFTFSSYGMSWVRQAPGKGLEWVATISSGGSYTYYPDSVKGRFTISRDNSKNTLYLQMNSLRAEDTAVYYCARQTTMTYFAYWGQGTLVTVSS
VL: QLVLTQSSSASFSLGASAKLTCTLSSQHSTYTIEWYQQQPLKPPKYVMDLKQDGSHSTGDGIPDRFSGSSSGADRYLSISNIQPEDEAMYICGVGDTIKEQFVYVFGGGTKVTVLG
notes: Human Cγ1 H chain C region

binding result [4]: no binding (tested: about 380 ng/ml)
B5: hH / hLf (antibody, V domains shown)
VH: QVQLVESGGGVVQPGRSLRLSCAASGFTFSSYGMSWVRQAPGKGLEWVATISSGGSYTYYPDSVKGRFTISRDNSKNTLYLQMNSLRAEDTAVYYCARQTTMTYFAYWGQGTLVTVSS
VL: QLVLTQSPSASASLGASVKLTCTLSSQHSTYTIEWHQQQPEKGPRYLMKLKQDGSHSTGDGIPDRFSGSSSGAERYLTISSLQPEDEADYICGVGDTIKEQFVYVFGGGTKLTVL
notes: copies: 2 + 2
